Laboratory results published in PMC5145805, “Structural Basis for Selective Interaction between the ESCRT Regulator HD-PTP and UBAP1” (Structure(London, England:1993), 2016).
Entries after “also recorded” stand apart in the source; their conditions may differ.

Columns and labels:
[1] = tested on: FKBP-HD-PTPBro1-CC in HeLa cells; test: Mitochondrial targeting (FKBP-HD-PTPBro1-CC / Mito-FRB relocalization, immunofluorescence); assay type: cell-based; details: HeLa, rapamycin 1 μM, 3 hr
Method: Mitochondrial targeting experiments were performed as previously described ([Sato et al., 2015]). HeLa cells were transiently transfected with HD-PTPBro1-CC containing an N-terminal FKBP sequence and a C-terminal myc tag (cloned into pcDNA5), Mito-FRB (a gift from Martin Lowe, Manchester, UK), and either GFP, WT UBAP1-GFP, or F268S UBAP1-GFP (in pEGFP). Mitochondrial relocation of FKBP-HD-PTPBro1-CC-myc was induced by addition of 1 μM rapamycin (Sigma) for 3 hr. Cells were then prepared for immunofluorescence microscopy as above. Mitochondrial relocation of GFP-tagged constructs was scored in three independent experiments (100 cells counted per experiment).

CC domain of HD-PTP = details: ref Stefani et al., 2011; cited from earlier work
Source text: Specific interaction with UBAP1 is central to the function of HD-PTP ([Stefani et al., 2011]), and their cooperation is essential to regulate integrin signaling and cell migration ([Kharitidi et al., 2015]). Therefore, we aimed to define this interaction at the molecular level. We previously identified the central region of UBAP1 (122–309) as binding to the CC domain of HD-PTP in a yeast two-hybrid (Y2H) screen ([Stefani et al., 2011]). […] In ad ...

[2] = molecular target: T1, HD-PTPCC (coiled-coil domain of HD-PTP, residues 363-712) (UniProt Q9H3S7 363-712); test: SPR; ProteOn XPR36; HD-PTP constructs (50-100 ug/mL) immobilised on an HTE chip, peptides injected (50 uL at 100 uL/min); 25 C; 10 mM HEPES pH 7.4, 150 mM NaCl, 0.05% Tween 20; equilibrium binding model; details: both partners purified
T1 construct: HD-PTP (His domain protein tyrosine phosphatase; PTPN23), coiled-coil domain, residues 363-712; Form used in the biosensor (SPR) and NMR experiments; immobilisation was on an HTE chip, which probably captures the His tag (surmise); also called CC domain of HD-PTP; WT HD-PTPCC; source: E. coli BL21(DE3), purified (nickel beads, Mono Q anion exchange, Superdex200)
T1 sequence (looked up): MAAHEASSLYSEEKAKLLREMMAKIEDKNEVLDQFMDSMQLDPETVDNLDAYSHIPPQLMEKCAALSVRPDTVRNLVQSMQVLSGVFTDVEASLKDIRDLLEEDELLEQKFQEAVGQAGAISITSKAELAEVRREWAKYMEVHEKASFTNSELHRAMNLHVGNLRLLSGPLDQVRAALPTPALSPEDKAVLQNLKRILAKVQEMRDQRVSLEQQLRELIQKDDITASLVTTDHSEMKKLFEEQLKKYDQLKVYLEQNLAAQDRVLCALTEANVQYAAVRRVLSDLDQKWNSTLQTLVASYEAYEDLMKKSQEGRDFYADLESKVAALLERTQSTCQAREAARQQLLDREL

[3] = molecular target: T2, HD-PTP_(Bro1-CC) (residues 1-714), His6-tagged (UniProt Q9H3S7 1-714); test: as above; details: both partners purified
T2 construct: HD-PTP (PTPN23), Bro1 and coiled-coil domains, residues 1-714; Precipitated by an anti-His antibody in the co-immunoprecipitation; immobilised on an HTE chip in SPR; also called His6-HD-PTP_(Bro1-CC); source: E. coli BL21(DE3), purified (nickel beads, Mono Q anion exchange, Superdex200)
T2 sequence (looked up): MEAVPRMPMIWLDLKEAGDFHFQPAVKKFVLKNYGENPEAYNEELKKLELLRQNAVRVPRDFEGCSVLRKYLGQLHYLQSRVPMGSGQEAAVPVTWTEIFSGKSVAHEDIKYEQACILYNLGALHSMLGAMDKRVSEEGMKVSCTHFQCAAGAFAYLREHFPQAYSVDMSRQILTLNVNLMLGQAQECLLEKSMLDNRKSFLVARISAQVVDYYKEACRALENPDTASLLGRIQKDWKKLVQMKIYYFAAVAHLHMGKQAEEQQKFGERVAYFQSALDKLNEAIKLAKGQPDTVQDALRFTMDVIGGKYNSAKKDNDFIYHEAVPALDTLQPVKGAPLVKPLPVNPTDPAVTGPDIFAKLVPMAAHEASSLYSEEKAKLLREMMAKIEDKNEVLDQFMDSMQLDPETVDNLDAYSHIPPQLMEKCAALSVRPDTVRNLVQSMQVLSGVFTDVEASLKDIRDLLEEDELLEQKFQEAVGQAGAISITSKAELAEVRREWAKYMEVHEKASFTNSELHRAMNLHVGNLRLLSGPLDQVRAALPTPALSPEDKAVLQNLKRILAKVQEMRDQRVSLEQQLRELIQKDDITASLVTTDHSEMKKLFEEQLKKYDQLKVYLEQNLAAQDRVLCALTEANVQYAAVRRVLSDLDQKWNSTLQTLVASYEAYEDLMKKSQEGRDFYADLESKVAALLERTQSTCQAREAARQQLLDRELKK

B1: UBAP1-GFP: UBAP1 GFP fusion, wild-type (protein)
chain: MASKKLGADFHGTFSYLDDVPFKTGDKFKTPAKVGLPIGFSLPDCLQVVREVQYDFSLEKKTIEWAEEIKKIEEAEREAECKIAEAEAKVNSKSGPEGDSKMSFSKTHSTATMPPPINPILASLQHNSILTPTRVSSSATKQKVLSPPHIKADFNLADFECEEDPFDNLELKTIDEKEELRNILVGTTGPIMAQLLDNNLPRGGSGSVLQDEEVLASLERATLDFKPLHKPNGFITLPQLGNCEKMSLSSKVSLPPIPAVSNIKSLSFPKLDSDDSNQKTAKLASTFHSTSCLRNGTFQNSLKPSTQSSASELNGHHTLGLSALNLDSGTEMPALTSSQMPSLSVLSVCTEESSPPNTGPTVTPPNFSVSQVPNMPSCPQAYSELQMLSPSERQCVETVVNMGYSYECVLRAMKKKGENIEQILDYLFAHGQLCEKGFDPLLVEEALEMHQCSEEKMMEFLQLMSKFKEMGFELKDIKEVLLLHNNDQDNALEDLMARAGAS
modifications: left off: GFP, end not stated, kept
notes: UBAP1 GFP fusion, wild-type
**Q.** Which “relocation to mitochondria with HD-PTPBro1-CC” value [1] does the source give for B1 here?
**A.** relocated to mitochondria; also recorded: translocates to mitochondria

B2: UBAP1-GFP F268S: UBAP1-GFP with F268S mutation (protein)
chain: MASKKLGADFHGTFSYLDDVPFKTGDKFKTPAKVGLPIGFSLPDCLQVVREVQYDFSLEKKTIEWAEEIKKIEEAEREAECKIAEAEAKVNSKSGPEGDSKMSFSKTHSTATMPPPINPILASLQHNSILTPTRVSSSATKQKVLSPPHIKADFNLADFECEEDPFDNLELKTIDEKEELRNILVGTTGPIMAQLLDNNLPRGGSGSVLQDEEVLASLERATLDFKPLHKPNGFITLPQLGNCEKMSLSSKVSLPPIPAVSNIKSLSSPKLDSDDSNQKTAKLASTFHSTSCLRNGTFQNSLKPSTQSSASELNGHHTLGLSALNLDSGTEMPALTSSQMPSLSVLSVCTEESSPPNTGPTVTPPNFSVSQVPNMPSCPQAYSELQMLSPSERQCVETVVNMGYSYECVLRAMKKKGENIEQILDYLFAHGQLCEKGFDPLLVEEALEMHQCSEEKMMEFLQLMSKFKEMGFELKDIKEVLLLHNNDQDNALEDLMARAGAS
modifications: left off: GFP, end not stated, kept
notes: UBAP1-GFP with F268S mutation
**Q.** For B2, which “relocation to mitochondria with HD-PTPBro1-CC” value [1] is on record?
**A.** not

B3: UBAP1 (122–309): central region of UBAP1 (122–309) (protein)
chain: ASLQHNSILTPTRVSSSATKQKVLSPPHIKADFNLADFECEEDPFDNLELKTIDEKEELRNILVGTTGPIMAQLLDNNLPRGGSGSVLQDEEVLASLERATLDFKPLHKPNGFITLPQLGNCEKMSLSSKVSLPPIPAVSNIKSLSFPKLDSDDSNQKTAKLASTFHSTSCLRNGTFQNSLKPSTQS
modifications: left off: Gal4 activation domain (from the vector pGADT7), end not stated, kept
**Q.** Which “Y2H binding to CC domain of HD-PTP” value (CC domain of HD-PTP) does the source give for B3 here?
**A.** binding

**Q.** For SNIKSLSFPKLDSDDSNQKT (peptide, UniProt Q9NZ09 261-280, looked up, also called UBAP1C peptide) [UBAP1C (UBAP1 peptide containing residues 261-280)], which Kd [2] is on record?
**A.** 66.3 ± 0.35 µM

**Q.** What about the Kd [3] of the same molecule?
**A.** 31.9 ± 0.85 µM
